# From the RNAGym collection of RNA variant scans (doi:10.1073/pnas.2313332121)
# B1: TPR t1 (parent)
# chain: GACCAAUCUGCCCUCAGAGCUCGAGAACAUCUUCGGAUGCAGAGGAGGCAGGCUUCGGUGGCGCGAUAGCGCCAACGUCCUCAACCUCCAAUGCAUCCCACCACAUGAUGAUGCCUGAAGAGCCUUGGUUUUUUG
# Variants of: B1
# Assay: polymerase ribozyme fitness, log enrichment relative to wild type (log ratio); higher = more active; in vitro selection for triplet polymerase activity
# Procedure, shortened: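 For each subunit of a heterodimeric triplet polymerase ribozyme, a mutant library was built by PCR and transcribed, then taken through a single in vitro selection round in triplicate. Selection involved annealing to a biotinylated primer, the partner subunit and triplets, incubation frozen at −7 °C, gel excision of extended constructs, capture on streptavidin beads and RT-PCR. Genotypes were retained after Illumina sequencing of inputs and outputs only with ≥10 input reads and ≥1 read in each output. Fitness is defined as the logarithm of a genotype's enrichment relative to wild-type enrichment, using inverse-variance-weighted averages across replicates, with the logarithm taken to base 2.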
row,Variant,polymerase ribozyme fitness (log ratio)
1,G71U U92A G93U,-3.61
2,G63A G93U C98U A121G,-0.418
3,A41U C49A G52C C72U,-3.5
4,C49U A66G C73A C101A G128A,-4.92
5,A46G C98U G117C,-5.69
6,U92C G117A,-2.67
7,G10A C56U A74C A75U G93U,-0.9
8,G17A A43G,-3.39
9,G71A G120C G122A,-1.43
10,C86U G110U,-1.02
11,C34A C53A,-2.86
12,A16G C49A A68G C73U,-4.78
13,C85A U112A C115U U130C,-2.28
14,A6G G47A C53U U59C,-1.37
15,G36A C82G C123U,-0.368
16,A2C U7A G10U C98U,-4.07
17,A46U C89U G135U,-4.54
18,C8U U125A U130G,-0.351
19,A6U G128A,-2.02
20,G61U G135A,-0.268
21,A41C A74U U87C,-0.35
22,G10A G71A C80A,-4.78
23,A46U G120U G135C,-0.818
24,C53U U112A,0.78

row,Variant,polymerase ribozyme fitness (log ratio)
1,C114G G135U,-2.93
2,C49G G61A,-0.914
3,A37G G44C C72G U78C,-1.05
4,G71A U116C,-1.26
5,C49U C82U A121U G127A,0.337
6,C11G G107C,-4.6
7,A27U A68U A90C G93A C101G G110U,-7.92
8,G39C A41U G60A,-2.76
9,U7C C11G A100C G120A,1.21
10,G36A G61U,0.0512
11,C34A C53G C56A,-2.83
12,C8U U21A C22U A27G C31G C56U G60A C86A U87G C115A A121C,-5.4
13,A83C C101A,-1.18
14,U21C A90C,-1.17
15,G19A C53U,-2.82
16,A29U G117C,-3.48
17,C3G A18C C22A A26G G60U A95U G120A,-4.84
18,C12A C86A U112A,0.277
19,A37U G61U A83G C88A,-2.28
20,A50C C53U C97U,-1.01
21,A29U U54G,-2.02
22,G61A G110A,-0.516
23,A27U C104U A111C G120C,-6.95
24,C20A C115U,-3.52

row,Variant,polymerase ribozyme fitness (log ratio)
1,C88G G128C,-3.43
2,C15A G42A G71U G117C,-5.93
3,A103G U112G,-4.71
4,C40U G47A A118G,-2.47
5,A2U G42A A83U C88U,-5.05
6,A5C U9G,0.0336
7,C31A A43G U59G C98G A100G A111G,-6.13
8,A26U G71A,-3.13
9,U9C C56U A83U G117A,0.635
10,G52U G69U C79A U87C U129G,-1.06
11,C11A C73A U81C U125A,-3.38
12,A18G U130G,-4.25
13,U14A G48U U59G,-2.71
14,U9C C22U A46C A103G G113C,-7.29
15,C76G C99A U112A,-4.02
16,G42U U59A G69U,-0.413
17,C11A U116G,-4.36
18,A6C G52A U81C A121C C123A,-0.955
19,A43U G60A G120C,-1.01
20,A18U A29G C56A C80A,-6.14
21,G36A C124U,0.816
22,C28A A43U,-5.18
23,C15G C88G,-3.07
24,U21A C72G A75U C85U,-1.63

row,Variant,polymerase ribozyme fitness (log ratio)
1,C20G C40U,-2.61
2,C28U U112C U116A,-1.82
3,C40G G63A U92G,-3.61
4,C13A,-1.61
5,C56G C73U,-0.89
6,U59C C86U,-1.17
7,C22G U112A A118U,-1.75
8,A16C U87A,-2.49
9,A118U G128A,-1.29
10,C40A C76U,-1.15
11,A90U U133G,-1.46
12,C34U G44C U87A C89G C115A,-4.92
13,C99A C102A U109A G127C,-6.24
14,G44U A91C G93A,-1.99
15,C56A C89U C102U G113U,-6.7
16,A29G A66G,-1.88
17,G44A G71C U125A U129C,-4.8
18,A41C A105G,-3.93
19,C15A G57A U78A G110U C124G,-3.91
20,G47C A50C C72U C85G C88G C102U C123U,-7.42
21,G110C U133A,-4.65
22,G52A C70U C86U C94A A100C C101U C114G,-5.67
23,A27C A50C A84C G120A,-3.23
24,U30A C73A,-5.19

row,Variant,polymerase ribozyme fitness (log ratio)
1,G36C G42U C56G A74C G107U U112A C114A,-7.54
2,A100C U106A U132C,-0.19
3,A50C U59C C86U,-0.825
4,A103U U106G,-4.14
5,G93A U130G,-1.45
6,G48U U87G U133G,-0.334
7,G44C G57U G63U,-2.08
8,U54C C76U,-0.00868
9,C73A C104U,0.181
10,C123A G135A,0.422
11,U14A C56U C73U U112G G120C,-1.15
12,C62G A83U A84U,-2.65
13,C11A G42A C86U U96A,-4.6
14,G61A A118G,-0.742
15,G71A C124U,1.42
16,A24C U32C C73A U96G A111U,-7.08
17,G47A G48A C53A G127A,-3.92
18,C12A C15A C72U C79A C88A,-5.1
19,G52A G60U,-2.42
20,C13G G110A,-1.87
21,C11U C22U,-4.2
22,G48U G93C A121G,0.759
23,C70A A105C G120C,-5.66
24,U21A G60U A90G,0.0218

row,Variant,polymerase ribozyme fitness (log ratio)
1,C53G U87G C97U G117U,-4.2
2,G60A C97G G117C,-6.67
3,G113A A119U U126A,-3.89
4,C4U C70A G128C,-4.51
5,A41C G52U C72G U96A,-4.71
6,G60U A119G,-0.151
7,G71A A74C A105C,-5.44
8,C72U C97U,-1.45
9,U21C G113C,-1.14
10,C56G A68G,-3.1
11,C4A A95C C123G,-1.42
12,G17C U38G C70G A95C C99A C104U A105G G110C,-6.76
13,A18G G19C C53U A111U,-4.72
14,C114U U129A,-3.98
15,C8U C12A G61A C79U,0.0887
16,U32C A83G U87A U106A,-2.71
17,G63U C123A,-0.845
18,G60U C86U A103U,-6.46
19,G45U A83C G93U U116C C123G,-4.31
20,A29G A37G A84G G110U A121G,-3.06
21,A50U U55G C98U G127A,-5.19
22,U7A A37U U78A,0.116
23,A91C C114G,-2.5
24,A100C C104U,-0.176

row,Variant,polymerase ribozyme fitness (log ratio)
1,A2G A18C A91C,-2.93
2,U7A A66U C98U,-1.89
3,U21C U54A C64A U78C G93A A111C,-6.03
4,G48A U87A U96A,-1.88
5,C3U G44C G60A,-0.897
6,G107U G113A,-3.27
7,G71A C101A G113U,-5.02
8,G52U G58A C79G C85A G107U G113A,-6.66
9,G63C C94A,-1.52
10,C64U C76A G120U,-5.9
11,C28U C40G G48U C85A,-3.6
12,C12A G45C G63U,-2.35
13,G10C A26C G120C G122A C123G G128A,-5.85
14,C3A C12A G58A A83C,-2.19
15,G120C G135A,0.738
16,U87C U126G,-1.22
17,C20A C49A U81A C104U G120C U133A G135U,-2.32
18,C101G C124G,-0.536
19,G17U C40A G48U C70U C99A G113A G117C,-6.87
20,C62A C101U,-2.3
21,U9C C56A A95C U116A,-2.12
22,C4A A24G G48U G60A,-4.54
23,C56A U87A U106A,-0.176
